Test results reported in US20240109955A1.

What was measured:
Experiment in all cases: cell-based or functional assay
[1] = biological target: SARS-CoV-2 spike (S) protein, Omicron variant BA.2.12.1 (SARS-CoV-2) (UniProt P0DTC2)
[2] = biological target: SARS-CoV-2 spike (S) protein, Omicron variant BA.2 (SARS-CoV-2) (UniProt P0DTC2)
[3] = biological target: SARS-CoV-2 spike (S) protein, Omicron variant BA.1 (SARS-CoV-2) (UniProt P0DTC2)
[4] = biological target: SARS-CoV-2 spike (S) protein of Omicron sublineage BA.2.75 (G446S) (SARS-CoV-2) (UniProt P0DTC2)
[5] = biological target: SARS-CoV-2 spike (S) protein of Omicron sublineage BJ.1 (R346T, V445P, G446S) (SARS-CoV-2) (UniProt P0DTC2)
[6] = biological target: SARS-CoV-2 spike (S) protein of Omicron sublineage BQ.1.1 (R346T, K444T, F486V) (SARS-CoV-2) (UniProt P0DTC2)
[7] = biological target: SARS-CoV-2 spike protein, Delta variant (AY.1) (SARS-CoV-2)
[8] = biological target: SARS-CoV-2 spike protein, Delta variant (B.1.617.2) (SARS-CoV-2)
[9] = biological target: SARS-CoV-2 spike protein, Beta variant 1 (B.1.351 v1) (SARS-CoV-2)
[10] = biological target: SARS-CoV-2 spike protein, Gamma variant (P.1) (SARS-CoV-2)
[11] = biological target: SARS-CoV-2 spike protein, Alpha variant (B.1.1.7) (SARS-CoV-2)
[12] = biological target: SARS-CoV-2 Omicron BA.4.6 spike protein (R346T, F486V) (SARS-CoV-2) (UniProt P0DTC2)
[13] = biological target: SARS-CoV-2 spike protein, Mu variant (B.1.621) (SARS-CoV-2)
[14] = biological target: SARS-CoV-2 spike protein, C.1.2 variant (SARS-CoV-2)

Sequence of A19-46.1 antibody (VH): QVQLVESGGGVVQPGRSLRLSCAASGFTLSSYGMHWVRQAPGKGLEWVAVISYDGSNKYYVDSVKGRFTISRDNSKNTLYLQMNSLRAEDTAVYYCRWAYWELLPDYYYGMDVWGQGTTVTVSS
Sequence of A19-46.1 antibody (VL): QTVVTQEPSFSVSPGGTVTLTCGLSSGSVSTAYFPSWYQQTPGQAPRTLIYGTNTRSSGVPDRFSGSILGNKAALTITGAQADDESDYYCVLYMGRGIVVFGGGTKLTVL
Sequence of MX492 (A19-46 × A23-58H/B1-182L) (bispecific antibody) (chain): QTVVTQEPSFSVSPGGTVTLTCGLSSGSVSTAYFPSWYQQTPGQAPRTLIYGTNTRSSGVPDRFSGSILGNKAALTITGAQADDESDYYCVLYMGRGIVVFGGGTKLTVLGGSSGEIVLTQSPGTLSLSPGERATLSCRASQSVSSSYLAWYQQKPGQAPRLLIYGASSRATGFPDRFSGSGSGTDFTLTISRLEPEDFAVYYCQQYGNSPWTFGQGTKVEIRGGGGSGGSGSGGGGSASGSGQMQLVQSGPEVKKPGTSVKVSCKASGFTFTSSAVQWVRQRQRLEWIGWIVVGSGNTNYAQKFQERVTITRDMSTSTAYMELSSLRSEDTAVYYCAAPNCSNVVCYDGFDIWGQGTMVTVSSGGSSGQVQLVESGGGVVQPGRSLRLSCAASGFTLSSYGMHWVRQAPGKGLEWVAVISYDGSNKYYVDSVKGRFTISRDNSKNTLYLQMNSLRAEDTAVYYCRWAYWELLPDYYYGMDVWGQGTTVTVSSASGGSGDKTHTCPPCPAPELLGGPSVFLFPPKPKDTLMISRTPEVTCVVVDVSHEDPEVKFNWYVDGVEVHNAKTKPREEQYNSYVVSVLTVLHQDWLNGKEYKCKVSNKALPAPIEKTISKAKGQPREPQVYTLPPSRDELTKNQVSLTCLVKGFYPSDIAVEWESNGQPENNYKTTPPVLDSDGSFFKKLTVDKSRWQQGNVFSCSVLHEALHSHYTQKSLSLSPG
Sequence of MX184 (B1-182 × A19-61) (bispecific antibody) (chain): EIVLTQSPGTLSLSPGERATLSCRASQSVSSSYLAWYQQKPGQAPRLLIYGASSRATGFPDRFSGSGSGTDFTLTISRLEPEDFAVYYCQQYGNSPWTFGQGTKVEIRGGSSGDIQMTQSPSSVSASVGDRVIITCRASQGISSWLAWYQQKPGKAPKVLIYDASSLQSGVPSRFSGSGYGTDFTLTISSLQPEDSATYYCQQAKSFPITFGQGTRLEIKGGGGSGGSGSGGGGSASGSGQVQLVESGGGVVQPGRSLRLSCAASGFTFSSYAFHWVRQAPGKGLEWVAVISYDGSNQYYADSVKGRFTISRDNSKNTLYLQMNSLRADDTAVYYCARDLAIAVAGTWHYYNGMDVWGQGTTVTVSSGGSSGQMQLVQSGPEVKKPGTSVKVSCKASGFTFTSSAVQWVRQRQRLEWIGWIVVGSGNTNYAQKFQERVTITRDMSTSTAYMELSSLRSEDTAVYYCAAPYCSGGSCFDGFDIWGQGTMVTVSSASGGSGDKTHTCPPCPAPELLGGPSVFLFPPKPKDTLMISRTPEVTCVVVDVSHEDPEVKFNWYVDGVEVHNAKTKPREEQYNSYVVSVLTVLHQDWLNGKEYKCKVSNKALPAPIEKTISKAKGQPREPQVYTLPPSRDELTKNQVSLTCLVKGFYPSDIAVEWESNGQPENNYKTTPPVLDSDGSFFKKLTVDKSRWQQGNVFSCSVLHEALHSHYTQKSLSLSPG
Sequence of MX468 (A19-61 × A23-58H/B1-182L CL-CH1) (bispecific antibody) (chain): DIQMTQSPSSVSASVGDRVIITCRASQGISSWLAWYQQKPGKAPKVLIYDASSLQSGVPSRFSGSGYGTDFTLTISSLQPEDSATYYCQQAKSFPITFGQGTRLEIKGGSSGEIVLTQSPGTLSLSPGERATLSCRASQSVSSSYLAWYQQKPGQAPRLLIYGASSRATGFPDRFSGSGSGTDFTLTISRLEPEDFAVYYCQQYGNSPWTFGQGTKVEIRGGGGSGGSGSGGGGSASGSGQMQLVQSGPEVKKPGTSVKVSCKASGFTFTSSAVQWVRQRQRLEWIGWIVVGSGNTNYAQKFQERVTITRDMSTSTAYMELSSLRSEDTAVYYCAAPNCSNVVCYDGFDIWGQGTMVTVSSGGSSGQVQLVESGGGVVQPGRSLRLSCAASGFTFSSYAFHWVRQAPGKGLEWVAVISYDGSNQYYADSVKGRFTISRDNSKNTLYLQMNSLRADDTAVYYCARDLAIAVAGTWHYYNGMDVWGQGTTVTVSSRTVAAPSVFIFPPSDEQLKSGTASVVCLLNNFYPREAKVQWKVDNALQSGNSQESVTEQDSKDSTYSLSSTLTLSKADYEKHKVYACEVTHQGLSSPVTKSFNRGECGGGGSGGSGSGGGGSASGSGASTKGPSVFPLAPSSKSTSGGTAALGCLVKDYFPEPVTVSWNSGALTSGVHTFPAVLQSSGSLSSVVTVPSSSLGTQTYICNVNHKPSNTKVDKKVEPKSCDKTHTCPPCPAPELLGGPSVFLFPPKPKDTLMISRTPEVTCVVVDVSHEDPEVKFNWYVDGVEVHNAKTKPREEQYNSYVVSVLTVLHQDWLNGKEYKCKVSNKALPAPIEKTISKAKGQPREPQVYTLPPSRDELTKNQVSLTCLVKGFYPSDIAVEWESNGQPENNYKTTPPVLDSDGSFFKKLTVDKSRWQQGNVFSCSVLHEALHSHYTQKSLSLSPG
Sequence of MX493 (A19-46 × A23-58H/B1-182L CL-CH1) (bispecific antibody) (chain): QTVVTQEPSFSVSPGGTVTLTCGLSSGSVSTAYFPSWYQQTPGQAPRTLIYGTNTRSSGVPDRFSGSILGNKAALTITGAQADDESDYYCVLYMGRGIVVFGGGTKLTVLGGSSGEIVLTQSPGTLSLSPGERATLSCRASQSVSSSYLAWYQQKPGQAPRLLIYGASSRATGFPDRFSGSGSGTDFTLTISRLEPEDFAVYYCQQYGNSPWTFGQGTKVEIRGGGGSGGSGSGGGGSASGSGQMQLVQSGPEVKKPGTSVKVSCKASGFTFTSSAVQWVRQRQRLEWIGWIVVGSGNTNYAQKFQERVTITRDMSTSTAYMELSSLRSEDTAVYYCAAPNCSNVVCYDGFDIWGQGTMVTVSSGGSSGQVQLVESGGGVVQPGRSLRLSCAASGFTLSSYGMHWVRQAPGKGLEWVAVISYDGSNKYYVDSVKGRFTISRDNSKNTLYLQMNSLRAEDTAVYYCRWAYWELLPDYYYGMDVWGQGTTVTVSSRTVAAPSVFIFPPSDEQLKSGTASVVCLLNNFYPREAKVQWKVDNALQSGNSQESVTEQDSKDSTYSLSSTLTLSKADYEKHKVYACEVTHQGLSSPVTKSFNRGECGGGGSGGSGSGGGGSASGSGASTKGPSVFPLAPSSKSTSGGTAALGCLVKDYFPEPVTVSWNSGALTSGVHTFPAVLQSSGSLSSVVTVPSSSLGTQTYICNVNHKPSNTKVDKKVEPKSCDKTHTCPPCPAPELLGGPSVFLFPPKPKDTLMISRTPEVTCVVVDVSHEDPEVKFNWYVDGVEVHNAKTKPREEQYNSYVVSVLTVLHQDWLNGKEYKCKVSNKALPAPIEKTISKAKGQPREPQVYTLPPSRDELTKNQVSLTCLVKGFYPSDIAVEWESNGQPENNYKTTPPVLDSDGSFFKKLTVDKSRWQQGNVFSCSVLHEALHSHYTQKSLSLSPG
Sequence of MX467 (A23-58H/B1-182L × A19-61 CL-CH1) (bispecific antibody) (chain): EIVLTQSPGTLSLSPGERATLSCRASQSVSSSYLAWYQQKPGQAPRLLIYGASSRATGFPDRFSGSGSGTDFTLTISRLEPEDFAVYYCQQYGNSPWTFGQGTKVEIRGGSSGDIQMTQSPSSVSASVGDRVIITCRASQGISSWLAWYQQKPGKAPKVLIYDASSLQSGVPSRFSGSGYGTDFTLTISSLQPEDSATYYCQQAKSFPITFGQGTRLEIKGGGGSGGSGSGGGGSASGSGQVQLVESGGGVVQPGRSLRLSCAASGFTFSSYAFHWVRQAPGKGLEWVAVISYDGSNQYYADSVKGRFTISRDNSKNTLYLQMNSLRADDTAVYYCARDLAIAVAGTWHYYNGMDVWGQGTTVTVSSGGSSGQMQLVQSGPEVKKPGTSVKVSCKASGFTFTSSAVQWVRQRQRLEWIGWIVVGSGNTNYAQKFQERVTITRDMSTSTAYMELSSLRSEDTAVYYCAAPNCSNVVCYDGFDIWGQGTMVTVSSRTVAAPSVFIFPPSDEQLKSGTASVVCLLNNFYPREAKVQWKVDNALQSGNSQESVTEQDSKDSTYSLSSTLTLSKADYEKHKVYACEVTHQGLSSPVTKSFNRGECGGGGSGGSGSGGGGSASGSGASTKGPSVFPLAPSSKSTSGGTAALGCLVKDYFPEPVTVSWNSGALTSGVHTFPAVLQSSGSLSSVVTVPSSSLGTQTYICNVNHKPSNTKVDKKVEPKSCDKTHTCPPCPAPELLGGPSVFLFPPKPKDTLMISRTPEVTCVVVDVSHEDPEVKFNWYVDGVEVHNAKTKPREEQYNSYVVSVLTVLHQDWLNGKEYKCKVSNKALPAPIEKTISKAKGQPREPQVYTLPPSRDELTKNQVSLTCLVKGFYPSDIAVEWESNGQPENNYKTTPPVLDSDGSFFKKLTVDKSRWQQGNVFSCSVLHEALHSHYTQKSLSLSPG

## MX 490 (A23-58H/B1-182L × A19-46) (bispecific antibody)
[1]
  IC50, pseudovirus neutralization: > 6.7 nM
  IC80, pseudovirus neutralization: > 6.7 nM
[2]
  IC50, pseudovirus neutralization: 0.392 nM
  IC80, pseudovirus neutralization: 0.896 nM
[3]
  IC50, pseudovirus neutralization: 0.22 nM
  IC80, pseudovirus neutralization: 0.484 nM

## A19-46.1 antibody
[4]
  IC50, pseudovirus neutralization: 148 nM
  IC80, pseudovirus neutralization: 352 nM
[5]
  IC50, pseudovirus neutralization: > 10000 nM
  IC80, pseudovirus neutralization: > 10000 nM
[6]
  IC50, pseudovirus neutralization: > 10000 nM
  IC80, pseudovirus neutralization: > 10000 nM

## MX184 (B1-182 × A19-61) (bispecific antibody)
[7]
  IC50, pseudovirus neutralization: 0.0174 nM
  IC80, pseudovirus neutralization: 0.03 nM
[8]
  IC50, pseudovirus neutralization: 0.0129 nM
  IC80, pseudovirus neutralization: 0.0458 nM
[9]
  IC50, pseudovirus neutralization: 0.0441 nM
  IC80, pseudovirus neutralization: 0.12 nM
[10]
  IC50, pseudovirus neutralization: 0.0325 nM
  IC80, pseudovirus neutralization: 0.137 nM
[11]
  IC50, pseudovirus neutralization: 0.0772 nM
  IC80, pseudovirus neutralization: 0.186 nM
[3]
  IC50, pseudovirus neutralization: 47.6 nM
  IC80, pseudovirus neutralization: > 66.7 nM

## A23-58H/B1-182L hybrid antibody
[4]
  IC50, pseudovirus neutralization: 5 nM
  IC80, pseudovirus neutralization: 35 nM
[5]
  IC50, pseudovirus neutralization: 20 nM
  IC80, pseudovirus neutralization: 102 nM
[12]
  IC50, pseudovirus neutralization: > 10000 nM
  IC80, pseudovirus neutralization: > 10000 nM
[6]
  IC50, pseudovirus neutralization: > 10000 nM
  IC80, pseudovirus neutralization: > 10000 nM

## MX468 (A19-61 × A23-58H/B1-182L CL-CH1) (bispecific antibody)
[1]
  IC50, pseudovirus neutralization: 0.0224 nM
  IC80, pseudovirus neutralization: 0.0698 nM
[2]
  IC50, pseudovirus neutralization: 0.0289 nM
  IC80, pseudovirus neutralization: 0.0617 nM
[3]
  IC50, pseudovirus neutralization: 1.33 nM
  IC80, pseudovirus neutralization: 4.06 nM

## MX493 (A19-46 × A23-58H/B1-182L CL-CH1) (bispecific antibody)
[1]
  IC50, pseudovirus neutralization: 0.0331 nM
  IC80, pseudovirus neutralization: 0.0858 nM
[2]
  IC50, pseudovirus neutralization: 0.02 nM
  IC80, pseudovirus neutralization: 0.0464 nM
[3]
  IC50, pseudovirus neutralization: 0.0158 nM
  IC80, pseudovirus neutralization: 0.0387 nM

## MX467 (A23-58H/B1-182L × A19-61 CL-CH1) (bispecific antibody)
[1]
  IC50, pseudovirus neutralization: 0.0181 nM
  IC80, pseudovirus neutralization: 0.127 nM
[2]
  IC50, pseudovirus neutralization: 0.0373 nM
  IC80, pseudovirus neutralization: 0.0738 nM
[3]
  IC50, pseudovirus neutralization: 18.5 nM
  IC80, pseudovirus neutralization: 69.4 nM

## A23-58 mAb (antibody)
[1]
  IC50, pseudovirus neutralization: 0.647 nM
  IC80, pseudovirus neutralization: 4.96 nM
[8]
  IC50, pseudovirus neutralization: 0.0133 nM
  IC80, pseudovirus neutralization: 0.0358 nM
[9]
  IC50, pseudovirus neutralization: 0.123 nM
  IC80, pseudovirus neutralization: 0.339 nM
[13]
  IC50, pseudovirus neutralization: 0.124 nM
  IC80, pseudovirus neutralization: 0.26 nM
[14]
  IC50, pseudovirus neutralization: 0.0287 nM
  IC80, pseudovirus neutralization: 0.0656 nM
[10]
  IC50, pseudovirus neutralization: 0.0097 nM
  IC80, pseudovirus neutralization: 0.0437 nM
[2]
  IC50, pseudovirus neutralization: 1.68 nM
  IC80, pseudovirus neutralization: 5.69 nM
[11]
  IC50, pseudovirus neutralization: 0.0329 nM
  IC80, pseudovirus neutralization: 0.104 nM
[3]
  IC50, pseudovirus neutralization: 0.853 nM
  IC80, pseudovirus neutralization: 4.24 nM

## MX492 (A19-46 × A23-58H/B1-182L) (bispecific antibody)
[1]
  IC50, pseudovirus neutralization: 0.107 nM
  IC80, pseudovirus neutralization: 0.93 nM
[2]
  IC50, pseudovirus neutralization: 0.0201 nM
  IC80, pseudovirus neutralization: 0.0451 nM
[3]
  IC50, pseudovirus neutralization: 0.0058 nM
  IC80, pseudovirus neutralization: 0.0369 nM

## MX491 (A23-58H/B1-182L × A19-46 CL-CH1) (bispecific antibody)
[1]
  IC50, pseudovirus neutralization: 1.44 nM
  IC80, pseudovirus neutralization: 7.81 nM
[2]
  IC50, pseudovirus neutralization: 0.0489 nM
  IC80, pseudovirus neutralization: 0.114 nM
[3]
  IC50, pseudovirus neutralization: 0.0316 nM
  IC80, pseudovirus neutralization: 0.0928 nM
